# US20190233512A1 (SUTRO BIOPHARMA, published 2019)
# Positions count from the first letter of the chain named.
# B1: SRP1848-D09 (antibody, V domains shown)
# VH: EVQLVESGGGLVQPGGSLRLSCAASGFNISNYYIHWVRQAPGKGLEWVGGISPNDGYTDYADSVKGRFTISADTSKNTAYLQMNSLRAEDTAVYYCARGSWSWRHGYGYYLDYWGQGTLVTVSS
# VL: not shown
# notes: VH/VL only; Fc-bearing IgG format with trastuzumab LC, HIS/FLAG-tagged, cell-free expressed; constant regions not tied; also called Antibody 29
# B2: SRP1848-B05 (antibody, V domains shown)
# VH: B1 VH with N54I, V64M, N84S, S102F, R104Q, H105S
# VL: not shown
# notes: VH/VL only; Fc-bearing IgG format with trastuzumab LC, HIS/FLAG-tagged, cell-free expressed; constant regions not tied; also called Antibody 12
# B3: SRP1848-B11 (antibody, V domains shown)
# VH: B1 VH with S30G, Y32N, Y33S, G50D, N54I, Y57F, H105A
# VL: not shown
# notes: VH/VL only; Fc-bearing IgG format with trastuzumab LC, HIS/FLAG-tagged, cell-free expressed; constant regions not tied; also called Antibody 17
# B4: SRP1848-B10 (antibody, V domains shown)
# VH: EVQLVESGGGLVQPGGSLRLSCAASGFNTTTKSIHWVRQAPGKGLEWVGEIYPRDGITDYADSVKGRFTISADTSKNTAYLQMNSLRAEDTAVYYCARGGWHWRSGYSYYLDYWGQGTLVTVSS
# VL: not shown
# notes: VH/VL only; Fc-bearing IgG format with trastuzumab LC, HIS/FLAG-tagged, cell-free expressed; constant regions not tied; also called Antibody 16
# B5: SRP1848-C10 (antibody, V domains shown)
# VH: B1 VH with S30R, N31T, N54I, R104P, H105A
# VL: not shown
# notes: VH/VL only; Fc-bearing IgG format with trastuzumab LC, HIS/FLAG-tagged, cell-free expressed; constant regions not tied; also called Antibody 23
# B6: SRP1848-A09 (antibody, V domains shown)
# VH: EVQLVESGGGLVQPGGSLRLSCAASGFNIRKQSIHWVRQAPGKGLEWVGSIFPNDGTTDYADSVKGRFTISADTSKNTAYLQVNSLRAEDTAVYYCARGSWFWRSGYGYFLEYWGQGTLVTVSS
# VL: not shown
# notes: VH/VL only; Fc-bearing IgG format with trastuzumab LC, HIS/FLAG-tagged, cell-free expressed; constant regions not tied; also called Antibody 7
# B7: SRP1848-C01 (antibody, V domains shown)
# VH: B1 VH with S30G, Y32S, I51V, S52T, A79T, S102F, H105A, T118A
# VL: not shown
# notes: VH/VL only; Fc-bearing IgG format with trastuzumab LC, HIS/FLAG-tagged, cell-free expressed; constant regions not tied; also called Antibody 18
# B8: SRP1848-A07 (antibody, V domains shown)
# VH: EVQLVESGGGLVQPGGSLRLSCAASGFNIGYHSIHWVRQAPGKGLEWVGEIFPVDGTTDYADSVKGRFTISADTSKNTAYLHMNSLRAEDTAVYYCARGFWAWRSGYGYYLDYWGQGTLVTVSS
# VL: not shown
# notes: VH/VL only; Fc-bearing IgG format with trastuzumab LC, HIS/FLAG-tagged, cell-free expressed; constant regions not tied; also called Antibody 5
# B9: SRP1848-C03 (antibody, V domains shown)
# VH: B8 VH with Y31V, H32Y, F52Y, V54I, T57N, H82Q, F100S, G108S
# VL: not shown
# notes: VH/VL only; Fc-bearing IgG format with trastuzumab LC, HIS/FLAG-tagged, cell-free expressed; constant regions not tied; also called Antibody 19
# B10: SRP1848-B03 (antibody, V domains shown)
# VH: B1 VH with N31M, Y32K, S52T, N54I, Y57M, R104P, H105S, G108S
# VL: not shown
# notes: VH/VL only; Fc-bearing IgG format with trastuzumab LC, HIS/FLAG-tagged, cell-free expressed; constant regions not tied; also called Antibody 10
# B11: SRP1848-B06 (antibody, V domains shown)
# VH: B1 VH with S52T, N54I, S100F, R104P, H105S, L111Q
# VL: not shown
# notes: VH/VL only; Fc-bearing IgG format with trastuzumab LC, HIS/FLAG-tagged, cell-free expressed; constant regions not tied; also called Antibody 13
# B12: SRP1848-E05 (antibody, V domains shown)
# VH: B1 VH with L20V, S30G, N31V, S52T, S100F, S102A, H105S
# VL: not shown
# notes: VH/VL only; Fc-bearing IgG format with trastuzumab LC, HIS/FLAG-tagged, cell-free expressed; constant regions not tied; also called Antibody 34
# B13: SRP1848-A04 (antibody, V domains shown)
# VH: B8 VH with G30D, Y31Q, H32S, E50V, F52Y, H82Q, F100A, A102S, L111I
# VL: not shown
# notes: VH/VL only; Fc-bearing IgG format with trastuzumab LC, HIS/FLAG-tagged, cell-free expressed; constant regions not tied; also called Antibody 3
# B14: SRP1848-B04 (antibody, V domains shown)
# VH: B4 VH with G26S, T29I, T30S, T31N, K32H, R54V, G100R, W101Y, H102S, S105A
# VL: not shown
# notes: VH/VL only; Fc-bearing IgG format with trastuzumab LC, HIS/FLAG-tagged, cell-free expressed; constant regions not tied; also called Antibody 11
# B15: SRP1848-C05 (antibody, V domains shown)
# VH: B1 VH with S30R, N31K, Y33S, G50D, S52F, N54I, Y57I, T58N, R104K, H105A
# VL: not shown
# notes: VH/VL only; Fc-bearing IgG format with trastuzumab LC, HIS/FLAG-tagged, cell-free expressed; constant regions not tied; also called Antibody 21
# Biological target: T1, Cynomolgus folate receptor alpha (cynomolgus monkey, UniProt P15328 25-234 (human entry))
# T1 construct: Stably expressed on CHO cells (CHO-cFOLR1); also called cynomolgus FOLR1; CHO-cFOLR1
# Experiment: FACS, CHO-cFOLR1 cells
# T1 sequence (P15328 other isoform, or with tags, fused parts or gaps limits assumed): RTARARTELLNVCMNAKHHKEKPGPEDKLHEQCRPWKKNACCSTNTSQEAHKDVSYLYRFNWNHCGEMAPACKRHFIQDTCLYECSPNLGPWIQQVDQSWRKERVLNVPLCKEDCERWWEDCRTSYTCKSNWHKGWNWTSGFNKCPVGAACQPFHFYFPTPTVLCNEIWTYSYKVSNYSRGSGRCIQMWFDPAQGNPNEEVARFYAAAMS
row,Bmax,Binder
1,21300 MFI,B1
2,21900 MFI,B2
3,22900 MFI,B3
4,21300 MFI,B4
5,16000 MFI,B5
6,20200 MFI,B6
7,25900 MFI,B7
8,23600 MFI,B8
9,25100 MFI,B9
10,17200 MFI,B10
11,26800 MFI,B11
12,28200 MFI,B12
13,23100 MFI,B13
14,27800 MFI,B14
15,15200 MFI,B15

# Biological target: T2, Human folate receptor alpha (hFOLR1) (human, UniProt P15328 25-234)
# T2 construct: Stably expressed on CHO cells (CHO-hFOLR1) for flow cytometry; endogenous on FOLR1-positive KB and Igrov1 cells in the killing assay; also called human FOLR1; FolRα
# Experiment: FACS, CHO-hFOLR1 cells
# Experimental: CHO cells were transfected to stably express human (CHO-hFOLR1), cynomolgus (CHO-cFOLR1), or mouse (CHO-mFOLR1) target molecule FOLR1 on the cell surface. Parental CHO cells were used as a negative control to determine background binding levels. Parental CHO and stably transfected CHO-hFOLR1, CHO-cFOLR1, and CHO-mFOLR1 cells were cultured in Ham's F-12: high glucose DMEM (50:50) (Corning, Cellgro-Mediatech) supplemented with 10% heat-inactivated fetal bovine serum (Corning, Cellgro-Mediatech), 1% Penicillin/Streptomycin (Corning, Cellgro-Mediatech) and 2 mmol/L-glutamax (Life Technology).
# A mixture of fluoresecent-labeled parental CHO cells and unlabeled CHO-hFOLRlcells were prepared as follows. Parental CHO cells were washed twice in PBS and incubated in PBS containing with 1 nM CellTrace™ Oregon Green488® (Life Technologies) at 37° C. for 30 minutes. Labeled parental CHO cells were then washed 2× with Ham's F-12 media and 2× with FACS buffer (PBS with 1% bovine serum albumin). Unlabeled CHO-hFOLR1 cells were similarly washed and prepared. Labeled parental CHO and unlabeled CHO-hFOLR1 cells were combined at 1:1 ratio and seeded at 50 μL per well (200,000 cells per well) in 96 well polypropylene plates. Cells were mixed with 50 μL of test antibodies (i.e., anti-FOLR1 variants) serially diluted in FACS buffer and incubated on ice for 60 mins. Cells were washed with FACS buffer and incubated on ice for 60 mins with 100 μL FACS buffer containing 2.5 μg/mL R-Phycoerythrin-conjugated goat anti-Human IgG (Jackson ImmunoResearch Laboratories, West Grove, Pa.). Cells were washed twice with FACS buffer, fixed in 2% paraformaldehyde in PBS (Santa Cruz Biotechnology; Dallas, Tex.) for 10 mins on ice in the dark, and analyzed using the BD LSR II Flow Cytometer (BD Biosciences; San Jose, Calif.). Data were analyzed using FlowJo® software (FlowJo, LLC; Ashland, Oreg.) to determine mean fluorescence intensities. Binding constants were calculated using the statistical software, GraphPad Prism (GraphPad Software; La Jolla, Calif.) using the nonlinear regression equation, one site-specific binding with Hill slope. Secondary antibody alone was used as a control, in addition to measuring non-specific antibody binding to CHO parental cells.
# T2 sequence (P15328 25-234 limits assumed): as the sequence (P15328 other isoform, or with tags, fused parts or gaps limits assumed) above, with T2I, R4W, K37R, R117Q, P146A, Y171H counted along it
row,Bmax,Binder
1,25000 MFI,B1
2,24500 MFI,B2
3,28400 MFI,B3
4,28200 MFI,B4
5,27500 MFI,B5
6,28900 MFI,B6
7,28500 MFI,B7
8,29200 MFI,B8
9,29100 MFI,B9
10,26300 MFI,B10
11,25100 MFI,B11
12,27300 MFI,B12
13,26800 MFI,B13
14,27800 MFI,B14
15,26800 MFI,B15

# Biological target: T3, Murine folate receptor alpha (mouse, UniProt P35846 25-232)
# T3 construct: Stably expressed on CHO cells (CHO-mFOLR1); also called mouse FOLR1; CHO-mFOLR1
# Experiment: FACS, CHO-mFOLR1 cells
# T3 sequence (P35846 25-232 limits assumed): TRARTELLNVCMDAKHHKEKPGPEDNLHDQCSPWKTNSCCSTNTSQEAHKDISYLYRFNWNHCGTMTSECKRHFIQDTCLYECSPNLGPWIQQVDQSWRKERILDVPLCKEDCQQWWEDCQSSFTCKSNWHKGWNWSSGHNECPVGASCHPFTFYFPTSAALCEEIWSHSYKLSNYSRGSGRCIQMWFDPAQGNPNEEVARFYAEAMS
row,Bmax,Binder
1,1630 MFI,B3
2,2460 MFI,B4
3,2330 MFI,B5
4,7990 MFI,B6
5,1370 MFI,B7
6,9650 MFI,B8
7,3310 MFI,B9
8,2720 MFI,B10
9,3890 MFI,B13
10,2190 MFI,B14
11,4130 MFI,B15
